Experimental data reported in patent US20110263454A1, “Methods of Identifying Functional Characteristics of Promoters, Transcription Modifying Proteins and Transcription Modulating Agents” (Salk Institute for Biological Studies, priority 2008, published 2011).

B1: HNF4g: Hepatocyte Nuclear Factor γ (NR2A2), cDNA driver (protein, UniProt Q14541 1-408, looked up)
Hepatocyte nuclear factor …: MNTTDNGVNCLCAICGDRATGKHYGASSCDGCKGFFRRSIRKSHVYSCRFSRQCVVDKDKRNQCRYCRLRKCFRAGMKKEAVQNERDRISTRRSTFDGSNIPSINTLAQAEVRSRQISVSSPGSSTDINVKKIASIGDVCESMKQQLLVLVEWAKYIPAFCELPLDDQVALLRAHAGEHLLLGATKRSMMYKDILLLGNNYVIHRNSCEVEISRVANRVLDELVRPFQEIQIDDNEYACLKAIVFFDPDAKGLSDPVKIKNMRFQVQIGLEDYINDRQYDSRGRFGELLLLLPTLQSITWQMIEQIQFVKLFGMVKIDNLLQEMLLGGASNDGSHLHHPMHPHLSQDPLTGQTILLGPMSTLVHADQISTPETPLPSPPQGSGQEQYKIAANQASVISHQHLSKQKQL
B2: RXRg: Retinoic X Receptor γ (NR2B3), cDNA driver (protein, UniProt P48443 1-463, looked up)
Retinoic acid receptor …: MYGNYSHFMKFPAGYGGSPGHTGSTSMSPSAALSTGKPMDSHPSYTDTPVSAPRTLSAVGTPLNALGSPYRVITSAMGPPSGALAAPPGINLVAPPSSQLNVVNSVSSSEDIKPLPGLPGIGNMNYPSTSPGSLVKHICAICGDRSSGKHYGVYSCEGCKGFFKRTIRKDLIYTCRDNKDCLIDKRQRNRCQYCRYQKCLVMGMKREAVQEERQRSRERAESEAECATSGHEDMPVERILEAELAVEPKTESYGDMNMENSTNDPVTNICHAADKQLFTLVEWAKRIPHFSDLTLEDQVILLRAGWNELLIASFSHRSVSVQDGILLATGLHVHRSSAHSAGVGSIFDRVLTELVSKMKDMQMDKSELGCLRAIVLFNPDAKGLSNPSEVETLREKVYATLEAYTKQKYPEQPGRFAKLLLRLPALRSIGLKCLEHLFFFKLIGDTPIDTFLMEMLETPLQIT
B3: TR2: Testicular Orphan Nuclear Receptor 2 (NR2C1), cDNA driver (protein, UniProt P13056 1-603, looked up)
Nuclear receptor subfamily 2 …: MATIEEIAHQIIEQQMGEIVTEQQTGQKIQIVTALDHNTQGKQFILTNHDGSTPSKVILARQDSTPGKVFLTTPDAAGVNQLFFTTPDLSAQHLQLLTDNSPDQGPNKVFDLCVVCGDKASGRHYGAVTCEGCKGFFKRSIRKNLVYSCRGSKDCIINKHHRNRCQYCRLQRCIAFGMKQDSVQCERKPIEVSREKSSNCAASTEKIYIRKDLRSPLTATPTFVTDSESTRSTGLLDSGMFMNIHPSGVKTESAVLMTSDKAESCQGDLSTLANVVTSLANLGKTKDLSQNSNEMSMIESLSNDDTSLCEFQEMQTNGDVSRAFDTLAKALNPGESTACQSSVAGMEGSVHLITGDSSINYTEKEGPLLSDSHVAFRLTMPSPMPEYLNVHYIGESASRLLFLSMHWALSIPSFQALGQENSISLVKAYWNELFTLGLAQCWQVMNVATILATFVNCLHNSLQQDKMSTERRKLLMEHIFKLQEFCNSMVKLCIDGYEYAYLKAIVLFSPDHPSLENMEQIEKFQEKAYVEFQDYITKTYPDDTYRLSRLLLRLPALRLMNATITEELFFKGLIGNIRIDSVIPHILKMEPADYNSQIIGHSI
B4: RORb: RAR-related Orphan Receptor β (NR1F2), cDNA driver (protein, UniProt Q92753 1-470, looked up)
Nuclear receptor ROR-beta: MCENQLKTKADATAQIEVIPCKICGDKSSGIHYGVITCEGCKGFFRRSQQNNASYSCPRQRNCLIDRTNRNRCQHCRLQKCLALGMSRDAVKFGRMSKKQRDSLYAEVQKHQQRLQEQRQQQSGEAEALARVYSSSISNGLSNLNNETSGTYANGHVIDLPKSEGYYNVDSGQPSPDQSGLDMTGIKQIKQEPIYDLTSVPNLFTYSSFNNGQLAPGITMTEIDRIAQNIIKSHLETCQYTMEELHQLAWQTHTYEEIKAYQSKSREALWQQCAIQITHAIQYVVEFAKRITGFMELCQNDQILLLKSGCLEVVLVRMCRAFNPLNNTVLFEGKYGGMQMFKALGSDDLVNEAFDFAKNLCSLQLTEEEIALFSSAVLISPDRAWLIEPRKVQKLQEKIYFALQHVIQKNHLDDETLAKLIAKIPTITAVCNLHGEKLQVFKQSHPEIVNTLFPPLYKELFNPDCATGCK

tested on: mCAR promoter; assay: NHR-promoter luciferase screen, mCAR promoter; assay type: cell-based, mouse; conditions: mCAR promoter-luciferase, CV-1 cells, NHR +/- ligand, control = 1.00
In short: (§1)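 CV-1 cells were co-transfected with 50 ng NHR (homodimer or NHR/RXR heterodimer), 100 ng promoter-luciferase construct and 50 ng LacZ. Luciferase was normalized to LacZ and to a no-NHR/no-ligand control.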

Molecule	luciferase activity normalized to lacZ activity and to a control, mCAR
B1	1.43
B2	1.25
B3	0.81
B4	1.15

same assay, conditions: mCAR promoter; HR/ligand component

Molecule	Luc. act., normalized to lacZ	Normalized Luc. act., normalized to control
B1	54.5	1.4
B2	47.5	1.2
B3	31.0	0.8
B4	43.7	1.1

tested on: hCAR promoter; assay: NHR-promoter luciferase screen, hCAR promoter; assay type: cell-based, human; conditions: hCAR promoter-luciferase, CV-1 cells, NHR +/- ligand, control = 1.00
In short: as §1

Molecule	luciferase activity normalized to lacZ activity and to a control, hCAR
B1	0.81
B2	0.93
B3	2.30
B4	1.05

same assay, conditions: hCAR promoter; HR/ligand component

Molecule	Luc. act., normalized to lacZ	Normalized Luc. act., normalized to control
B1	25.5	0.8
B2	29.3	0.9
B3	72.7	2.3
B4	33.3	1.1

tested on: hPOMC promoter; assay: NHR-promoter luciferase screen, hPOMC promoter; assay type: cell-based, human; conditions: hPOMC promoter; HR/ligand component
In short: as §1

Molecule	Luc. act., normalized to lacZ	Normalized Luc. act., normalized to control
B1	5.3	1.2
B2	2.5	0.6
B3	15.7	3.6
B4	2.2	0.5

same assay, conditions: transcription factor +/- ligand; control = 1.00

Molecule	hPOMC promoter reporter activity
B1	1.23
B2	0.58
B3	3.65
B4	0.52

tested on: mPOMC promoter; assay: NHR-promoter luciferase screen, mPOMC promoter; assay type: cell-based, mouse; conditions: Table 6d; luciferase activity relative to control (control = 1.00)
In short: as §1

Molecule	Results of assays of transcription factor (+/- ligand) with mPOMC
B1	1.07
B2	1.06
B3	1.92
B4	1.29

same assay, conditions: mPOMC promoter; HR component with or without ligand

Molecule	Luc. act., normalized to lacZ
B1	73.9
B2	73.2
B3	132.1
B4	88.7

same assay, conditions: mPOMC promoter; HR component with or without ligand; relative to control

Molecule	Normalized Luc. act., normalized to control
B1	1.1
B2	1.1
B3	1.9
B4	1.3

tested on: mDio1 promoter; assay: NHR-promoter luciferase screen, mDio1 promoter; assay type: cell-based, mouse; conditions: Dio1; HR component without or with its ligand
In short: as §1

Molecule	Luc. act., normalized to lacZ	Normalized Luc. act., normalized to control
B1	15.6	3.5
B2	6.6	1.5
B3	14.8	3.3
B4	6.4	1.4

same assay, conditions: transcription factor +/- ligand; control = 1.00

Molecule	mDio1 promoter reporter activity
B1	3.49
B2	1.48
B3	3.32
B4	1.44

tested on: mABCA1 promoter; assay: NHR-promoter luciferase screen, mABCA1 promoter; assay type: cell-based, mouse; conditions: ABCA1 promoter; hormone receptor with or without its ligand
In short: as §1

Molecule	Luc. act., normalized to lacZ
B1	11.3
B2	18.3
B3	31.2
B4	26.4

same assay, conditions: ABCA1 promoter; hormone receptor with or without its ligand; relative to control

Molecule	Normalized Luc. act., normalized to control
B1	2.0
B2	3.3
B3	5.6
B4	4.7

same assay, conditions: transcription factor +/- ligand; control = 1.00

Molecule	mABCA1 promoter reporter activity
B1	2.01
B2	3.26
B3	5.55
B4	4.69
